Molecular target: T1, HA-tagged GIPC1 (GAIP interacting protein C terminus) (UniProt O14908 1-333)
T1 construct: GIPC1, scaffold protein with a PDZ domain; The plasmid list begins with 'Human NRP1WT, HA-tagged GIPC1, ...'; it is not clear whether 'Human' also covers GIPC1; also called GIPC1 (HA); source: HEK293T, transfected (pcDNA 3.1 TOPO, FuGENE6), in lysate
T1 sequence (looked up): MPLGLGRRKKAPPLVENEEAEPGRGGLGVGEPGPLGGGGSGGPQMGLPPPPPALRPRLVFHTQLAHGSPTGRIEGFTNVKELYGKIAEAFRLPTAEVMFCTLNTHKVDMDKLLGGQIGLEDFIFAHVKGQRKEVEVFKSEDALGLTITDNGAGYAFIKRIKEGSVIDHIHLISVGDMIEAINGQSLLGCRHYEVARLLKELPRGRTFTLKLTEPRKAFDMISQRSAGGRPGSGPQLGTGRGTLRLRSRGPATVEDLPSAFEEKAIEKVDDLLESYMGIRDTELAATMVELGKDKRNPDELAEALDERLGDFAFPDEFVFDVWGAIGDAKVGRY
Assay: co-IP; Scrambled or Targeted peptide mixed with lysate of HEK293T overexpressing HA-GIPC1, 1 h rotation at 4°C; co-immunoprecipitated with GIPC1; blot with anti-GFP
Details: one partner purified

B1: TAT-EGFP-peptide 1 (STLTASEV), the Targeted peptide (peptide)
chain: GSTLTASEV
notes: Detected with anti-GFP; also called Target peptide; not shown: EGFP, N-terminal, kept
fold binding over the Scrambled peptide: 3 fold

— article PMC4582117, “VEGF-A/NRP1 stimulates GIPC1 and Syx complex formation to promote RhoA activation and proliferation in skin cancer cells” (Biology Open, 2015)
